Source: patent US20160312265, “USE OF NUCLEIC ACID AGENTS FOR ULTRA-SENSITIVE DIGITAL DETECTION AND QUANTIFICATION OF TARGET MOLECULES” (Aptitude Medical Systems, Inc., published 2016)

Molecular target: TNFα (tumor necrosis factor alpha) (UniProt P01375 P01375:77-233)
Assay: antibody-capture / aptamer-detection sandwich in ELISA wells, 5 nM aptamer, eluted at 95 C and counted by digital PCR; PBS, 0.05% Tween-20, 2.5 mM MgCl2, 1 mM CaCl2 wash; no numerical result in text
Conditions: tags: Shenandoah Biotechnology 100-111; chain copies: 3 (inferred)
Method: The ELISA wells (Thermo Scientific, Catalog #: 15031) were functionalized with a TNFα antibody (eBioscience, Catalog #: 14-7349-85) at 5 μg/ml in PBS overnight at 4° C. Right before use, the ELISA wells were blocked with 300 μL AptaBuffer (PBS+0.05% Tween-20+2.5 mM MgCl₂+1 mM CaCl₂+1% BSA+0.5 mg/mL Dextran Sulfate+0.1 mg/mL Salmon Sperm DNA) with gentle shaking at ˜500 RPM for at least 30 minutes.
Next, test samples (50 μL) containing the protein of interest (TNFα, Shenandoah Biotechnology, Catalog #: 100-111) were added to the washed ELISA wells and incubated for 1 hour with gentle shaking After the target-capture incubation, the ELISA wells were washed once with PBSMCT (PBS+0.05% Tween-20+2.5 mM MgCl₂+1 mM CaCl₂) and 5 nM of the detection TNFα aptamer was added to the wells and incubated for 30 minutes with gentle shaking. The ELISA plate was then washed 4 times with 300 μl of PBS-MCT after the incubation with the detection aptamer. In an embodiment, the sequence of TNFα aptamer is 5′-[…] […]-3′.
For the elution step, 100 μL of PCR grade water was added to each ELISA well. After heating the plate at 95° C. for 10 minutes, we transfer the 100 μL of eluent containing the detection aptamers into a new tube. The eluents are diluted 10 fold before they are measured by the QuantStudio® 3D Digital PCR System from Life Technologies.

Chain of TNFα (tumor necrosis factor alpha) (P01375 77-233, one chain of several): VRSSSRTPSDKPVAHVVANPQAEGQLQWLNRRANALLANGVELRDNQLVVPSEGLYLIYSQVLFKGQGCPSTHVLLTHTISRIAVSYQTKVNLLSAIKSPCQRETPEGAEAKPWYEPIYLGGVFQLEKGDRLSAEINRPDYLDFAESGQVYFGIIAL

B1: TNFα detection aptamer (ssDNA)
DNA: ATCCAGAGTGACGCAGCATGCTTAAGGGGGGGGCGGGTTAAGGGAGTGGGGAGGGAGCTGGTGTGGACACGGTGGCTTAGT
  binding result: binds
